# T1: HER2 peptide p612-618 (human)
# T1 construct: also called PIWKFPD
# T1 peptide: PIWKFPD
# T2: HER2 peptide p610-618 (human)
# T2 peptide: YMPIWKFPD
# T3: HER2 peptide p609-618 (human)
# T3 peptide: SYMPIWKFPD
# T4: HER2 peptide p611-618 (human)
# T4 peptide: MPIWKFPD
# T5: HER2 peptide p614-619 (human)
# T5 peptide: WKFPDE
# T6: HER2 peptide p610-620 (human)
# T6 peptide: YMPIWKFPDEE
# T7: HER2 peptide p612-619 (human)
# T7 peptide: PIWKFPDE
# T8: HER2 peptide p609-621 (human)
# T8 peptide: SYMPIWKFPDEEG
# T9: HER2 peptide p613-621 (human)
# T9 peptide: IWKFPDEEG
# T10: HER2 peptide p611-619 (human)
# T10 peptide: MPIWKFPDE
# T11: HER2 peptide p609-620 (human)
# T11 peptide: SYMPIWKFPDEE
# T12: HER2 peptide p611-620 (human)
# T12 peptide: MPIWKFPDEE
# T13: HER2 peptide p612-621 (human)
# T13 peptide: PIWKFPDEEG
# T14: HER2 peptide p614-622 (human)
# T14 peptide: WKFPDEEGA
# T15: HER2 peptide p612-622 (human)
# T15 peptide: PIWKFPDEEGA
# T16: HER2 peptide p603-622 (amino acids 603 to 622 of human HER2) (human)
# T16 construct: Synthetic peptide; also called wild-type HER2 peptide
# T16 peptide: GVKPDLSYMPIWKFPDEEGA
# B1: H2Mab-214 antibody (antibody, V domains shown)
# VH: QVTLKESGPGILQPSQTLSLTCSFSGFSLSTSGMGVSWIRQPSGKGLEWLAHIFWDDDKRYNPSLKSRLTISKDTSRNKVFLKITSVDTADTATYYCARRVVATDWYFDVWGAGTTVTVSS
# VL: DIVLTQSPASLAVSLGQRATISCRASESVEYYGTTLMQWYQQKPGQPPKLLIYAASKVESGVPARFSGSGSGTDFSLNIHPVEEDDVAMYFCQQSRKVPLTFGAGTKLELKR
# notes: Mouse monoclonal from a hybridoma (immunogen HER2ec made in LN229 cells); also called antibody of the present invention
# Tests used:
# Experiment in all cases: SPR Biacore, mAb on chip, peptide analyte, 1:1 fit;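 also: all binding measurements run at 25 °C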
# [1] = target: T1, HER2 peptide p612-618
# Method: (§1) Unreacted NHS esters were blocked with ethanolamine. […] All measurements were performed at 25° C. Measurement data were analyzed using a 1:1 binding model of BIAevaluation software (Cytiva) to determine a binding rate constant (ka), a dissociation rate constant (kd), and a dissociation constant (KD). For those in which ka or kd could not be determined, KD was determined using the equilibrium value analysis method of BIAevaluation software (Cytiva).
# [2] = target: T2, HER2 peptide p610-618
# Method: as §1
# [3] = target: T3, HER2 peptide p609-618
# Method: as §1
# [4] = target: T4, HER2 peptide p611-618
# Method: as §1
# [5] = target: T5, HER2 peptide p614-619
# Method: as §1
# [6] = target: T6, HER2 peptide p610-620
# Method: as §1
# [7] = target: T7, HER2 peptide p612-619
# Method: as §1
# [8] = target: T8, HER2 peptide p609-621
# Method: as §1
# [9] = target: T9, HER2 peptide p613-621
# Method: as §1
# [10] = target: T10, HER2 peptide p611-619
# Method: as §1
# [11] = target: T11, HER2 peptide p609-620
# Method: as §1
# [12] = target: T12, HER2 peptide p611-620
# Method: as §1
# [13] = target: T13, HER2 peptide p612-621
# Method: as §1
# [14] = target: T14, HER2 peptide p614-622
# Method: as §1
# [15] = target: T15, HER2 peptide p612-622
# Method: as §1
# [16] = target: T16, HER2 peptide p603-622 (amino acids 603 …)
# Method: as §1
binder,measurement,setting,value
B1,Kd,[1],27.7 nM
same,koff,[1],0.013 s⁻¹
same,kon,[1],467000 M⁻¹ s⁻¹
same,Kd,[2],14.5 nM
same,koff,[2],0.0121 s⁻¹
same,kon,[2],837000 M⁻¹ s⁻¹
same,Kd,[3],14.3 nM
same,koff,[3],0.0107 s⁻¹
same,kon,[3],747000 M⁻¹ s⁻¹
same,Kd,[4],21 nM
same,koff,[4],0.0141 s⁻¹
same,kon,[4],669000 M⁻¹ s⁻¹
same,Kd,[5],8540 nM
same,koff,[5],0.0119 s⁻¹
same,kon,[5],1400 M⁻¹ s⁻¹
same,Kd,[6],8.68 nM
same,koff,[6],0.00502 s⁻¹
same,kon,[6],579000 M⁻¹ s⁻¹
same,Kd,[7],22.2 nM
same,koff,[7],0.0235 s⁻¹
same,kon,[7],1.06e+06 M⁻¹ s⁻¹
same,Kd,[8],8.06 nM
same,koff,[8],0.00465 s⁻¹
same,kon,[8],577000 M⁻¹ s⁻¹
same,Kd,[9],13000 nM
same,koff,[9],0.00955 s⁻¹
same,kon,[9],736 M⁻¹ s⁻¹
same,Kd,[10],11.1 nM
same,koff,[10],0.0083 s⁻¹
same,kon,[10],747000 M⁻¹ s⁻¹
same,Kd,[11],6.89 nM
same,koff,[11],0.00445 s⁻¹
same,kon,[11],645000 M⁻¹ s⁻¹
same,Kd,[12],17.6 nM
same,koff,[12],0.00836 s⁻¹
same,kon,[12],475000 M⁻¹ s⁻¹
same,Kd,[13],27.9 nM
same,koff,[13],0.024 s⁻¹
same,kon,[13],859000 M⁻¹ s⁻¹
same,Kd,[14],26400 nM
same,koff,[14],0.0115 s⁻¹
same,kon,[14],435 M⁻¹ s⁻¹
same,Kd,[15],39.7 nM
same,koff,[15],0.0244 s⁻¹
same,kon,[15],615000 M⁻¹ s⁻¹
same,Kd,[16],22.8 nM
same,koff,[16],0.00534 s⁻¹

# From patent publication US20240002531A1 (ONO PHARMACEUTICAL, published 2024)
